Experimental data from patent publication US20200188479A1 (INTARCIA THERAPEUTICS, published 2020).
Ends that are not written are not given here.

Target: fraction V human serum albumin (human, UniProt P02768 25-609)
Assay: cell-based or functional assay

Sequence of fraction V human serum albumin (P02768 25-609 limits assumed): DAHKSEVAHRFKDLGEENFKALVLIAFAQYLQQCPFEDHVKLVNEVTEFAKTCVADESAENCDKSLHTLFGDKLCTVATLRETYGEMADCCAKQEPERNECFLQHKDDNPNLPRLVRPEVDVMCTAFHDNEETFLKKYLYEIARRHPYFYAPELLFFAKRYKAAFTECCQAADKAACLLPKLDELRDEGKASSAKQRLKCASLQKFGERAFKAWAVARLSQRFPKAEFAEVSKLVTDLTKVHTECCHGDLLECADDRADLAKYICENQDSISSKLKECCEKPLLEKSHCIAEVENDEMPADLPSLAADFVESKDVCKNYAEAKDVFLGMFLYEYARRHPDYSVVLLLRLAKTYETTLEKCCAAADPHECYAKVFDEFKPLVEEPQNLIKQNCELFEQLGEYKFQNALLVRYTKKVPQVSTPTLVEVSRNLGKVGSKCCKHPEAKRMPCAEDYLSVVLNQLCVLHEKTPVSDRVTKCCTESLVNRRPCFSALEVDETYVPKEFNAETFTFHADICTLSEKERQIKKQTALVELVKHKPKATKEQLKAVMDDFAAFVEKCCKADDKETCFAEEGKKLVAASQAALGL

B1: semaglutide (peptide)
peptide: HXEGTFTSDVSSYLEGQAAKEFIAWLVRGRG
modifications: Aib in position 8 (GLP-1 numbering); Lys carries N6-[N-(17-carboxy-1-oxoheptadecyl-L-c-glutamyl[2-(2-aminoethoxy)ethoxy]acetyl[2-(2-aminoethoxy)ethoxy]acetyl] residue (as printed in paragraph 217))
  fold decrease in potency shift in 4% vs 0.1% albumin (cAMP accumulation in hGLP1R-expressing CHO-K1 cells): 19.9 fold
  reduction in potency in 4% vs 0.1% albumin, relative to the effect observed with GLP-1[7-36]NH2: 36.8 fold

## HAEGTFTSDVSSYLEGQAAKEFIAWLVKGR-NH2 [human GLP-1[7-36]NH2]
  albumin-mediated change in potency for activation of GLP-1 receptors at 4% HSA versus 0.1% HSA: 0.54 fold (×)
  potency shift in 4% vs 0.1% albumin (cAMP accumulation in hGLP1R-expressing CHO-K1 cells): 1.8 fold
